Experimental findings from patent publication US20200113997A1 (published 2020) are described below.

As usually defined, the Kd is the constant that tells how readily two partners part at equilibrium.

Positions count from the first letter of the chain named.

In the assay the target is T1, Man9-V3 glycopeptide (cyclic).
T1 peptide: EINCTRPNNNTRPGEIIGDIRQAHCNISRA
Kind of assay: BLI.

B1: DH270.3 (antibody, V domains shown)
VH: QVQLVQSGAEMKNPGASVKVSCAASGYTFTDFYIHWVRLAPGQGLEWMGWMNPKTGRTNNAQNFQGRVIMTRDTSIGTAYMELRRLTSDDTAVYYCVTGGWISPYYDSSYYPNFDHWGQGTLVTVSS
VL: QSALTQPASVSGSPGQSITISCTGTSYDVGKFDLVSWYQQHPGKAPKYMIYEVNKWPSGVSHRFSGSKSGNTASLTISGLQAEDEADYYCCSFGGSATVVCGGGTKVTVL
B1 displayed a Kd of 195 nM.

B2: DH270.4 (antibody, V domains shown)
VH: B1 VH with Q1E, T28G, Q43H, E46Q, N63D, M70L, V123I
VL: B1 VL with G30A, Y38F
Take B2: the dissociation constant Kd stood at 346 nM.

B3: DH270.5 (antibody, V domains shown)
VH: B1 VH with M11V, A24P, M48L, N60Q, A61G, R85S, G100A, P104D
VL: B1 VL with Q1L, S2P, A3V, S26I, Q40H, M49L, N54K, A82V, T98A
In the case of B3, binding was put at a Kd of 281 nM.

B4: DH270.2 (antibody, V domains shown)
VH: QVQLVQSGAEMKKPGASVRVSCKASGYTFTDYYIHWVRQAPGQGPEWMGWINPSTGRTNSPQKFQGRVIMTRDTSISTAYMDLNRLTSDDTAMYYCTTGGWIGLYSDTSGYPNFDYWGQGTLVTVSS
VL: QSALTQPASVSGSPGQSITISCTGTNYDVGSYNLVSWYQQHPGKVPKYIIYEVNKRPSGVSNRFSGSKSGNTASLTISGLQAEDEADYYCCSYAGSSIIFFGGGTKLTVI
B4 had a Kd of 4770 nM. Against the preceding molecule, the Kd is about 17-fold higher.
